Data on two molecules can be found in US20250051467A1 (JIANGSU HENGRUI PHARMACEUTICALS, published 2025).

The target of assay [1] is T1, h-FAP-His (human, UniProt Q12884 26-760).
T1 construct: range 26-760; Bought recombinant protein with a His tag; also called human FAP-His protein; FAP recombinant protein with a His tag
Put plainly: ELISA, human FAP-His coated. The protocol:
A FAP recombinant protein with a His tag was directly used for coating. After the antibodies were added, a secondary antibody (an HRP-conjugated anti-human IgG antibody) and the HRP substrate TMB were added to measure the binding activity of the antibodies to the antigen. The assay comprises the following steps: A […] solution of human FAP-His protein was used to coat a 96-well microplate at 100 μL/well, and the plate was incubated overnight at 4° C. After a thorough wash, a blocking solution was added at 200 μL/well, and the plate was incubated at room temperature for 2 h. After a thorough wash, dilutions of test anti-FAP antibodies were added at 100 μL/well. The plate was incubated at room temperature for 1 h. After a thorough wash, a 1:20,000 dilution of an HRP-labeled goat anti-human IgG secondary antibody was added at 100 μL/well. The plate was incubated at room temperature for 1 h. After a thorough wash, TMB was added at 100 μL/well, and the plate was incubated in the dark for 15 min. 0.16 M sulfuric acid was added at 50 μL/well. The OD value at 450 nm was measured on a Thermo MultiSkanFc microplate reader, and the binding EC₅₀ values of the anti-FAP antibodies were calculated.

In another assay the target is T2, human FAP on CHO cells (human, UniProt Q12884 1-760).
T2 construct: whole, on cells; also called CHO cell line overexpressing human FAP; CHOK1/FAP
The experiment in a line: FACS, CHO cells overexpressing human FAP. The protocol:
(§1) A FACS assay was used to measure the binding properties of anti-FAP antibodies on cells. The assay comprises the following steps: A CHO cell line overexpressing human FAP was constructed and plated (1E5/well). The test antibodies were added at 100 μL/well. The highest concentration was 100 nM. A 5-fold dilution was performed, yielding 8 concentrations in total. The plate was incubated at 4° C. for 1 h. Anti-hIgG Alexa Fluor-647 was added as a secondary antibody in the ratio of 1:500. The plate was incubated at 4° C. for 30 min, and a FACS assay was performed. Antibodies that bind to FAP can mark cells. The relation between the percentage of the marked cells that over-express human FAP among all cells and the antibody concentration is shown in FIG. 1. The relation between the percentage of the marked cells that over-express mouse FAP among all cells and the antibody concentration is shown in FIG. 2.

Assay [2] concerns the target T1, h-FAP-His. Put plainly: SPR, h-FAP-His analyte; lower end tied to Ab14 by Table 6. The protocol: (§2) A CM5 sensor chip was used, and HBS-EP+buffer solution (10 mM HEPES, 150 mM NaCl, 3 mM EDTA, 0.05% surfactant P20) was used as the mobile phase. An anti-human IgG (Fc) antibody was made into a […] solution in a 10 mM sodium acetate buffer solution (pH 5.0) and immobilized by amino coupling. The test antibodies were diluted in HBS-EP+buffer solution and captured by the anti-human IgG (Fc) antibody on chip channels. h-FAP-His was dissolved in HBS-EP+buffer solution to prepare an analyte, and the analyte was serially diluted 2-fold. The diluted antibodies were passed through the experimental and reference channels at a flow rate of […], with 1 min of binding and 15 min of disassociation. 10 mM Glycine pH 1.5 was passed as a regeneration buffer solution for 30 s at a flow rate of […]. Data were analyzed. […] However, the binding affinities of the other anti-FAP antibodies obtained by screening at the same time in the present disclosure, such as Ab2, Ab4 and Ab5 (sequences not shown), for the antigen are lower than that of 28H1.

Assay [3] deals with T1, h-FAP-His. The experiment in a line: SPR, antibody captured by anti-human IgG Fc, h-FAP-His analyte. The protocol:
as §2

For a further assay, the target named is T3, mouse FAP on CHOK1 cells (mouse, UniProt P97321 1-761).
T3 construct: whole, on cells; also called cell surface mouse FAP
The experiment in a line: FACS, percent of marked cells overexpressing mouse FAP, anti-hIgG Alexa Fluor-647 secondary antibody. The procedure:
as §1

In assay [4] the target is T1, h-FAP-His. Put plainly: SPR, h-FAP-His analyte; upper end tied to Ab15 by Table 6. The protocol:
as §2

T3 sequence (P97321 whole entry): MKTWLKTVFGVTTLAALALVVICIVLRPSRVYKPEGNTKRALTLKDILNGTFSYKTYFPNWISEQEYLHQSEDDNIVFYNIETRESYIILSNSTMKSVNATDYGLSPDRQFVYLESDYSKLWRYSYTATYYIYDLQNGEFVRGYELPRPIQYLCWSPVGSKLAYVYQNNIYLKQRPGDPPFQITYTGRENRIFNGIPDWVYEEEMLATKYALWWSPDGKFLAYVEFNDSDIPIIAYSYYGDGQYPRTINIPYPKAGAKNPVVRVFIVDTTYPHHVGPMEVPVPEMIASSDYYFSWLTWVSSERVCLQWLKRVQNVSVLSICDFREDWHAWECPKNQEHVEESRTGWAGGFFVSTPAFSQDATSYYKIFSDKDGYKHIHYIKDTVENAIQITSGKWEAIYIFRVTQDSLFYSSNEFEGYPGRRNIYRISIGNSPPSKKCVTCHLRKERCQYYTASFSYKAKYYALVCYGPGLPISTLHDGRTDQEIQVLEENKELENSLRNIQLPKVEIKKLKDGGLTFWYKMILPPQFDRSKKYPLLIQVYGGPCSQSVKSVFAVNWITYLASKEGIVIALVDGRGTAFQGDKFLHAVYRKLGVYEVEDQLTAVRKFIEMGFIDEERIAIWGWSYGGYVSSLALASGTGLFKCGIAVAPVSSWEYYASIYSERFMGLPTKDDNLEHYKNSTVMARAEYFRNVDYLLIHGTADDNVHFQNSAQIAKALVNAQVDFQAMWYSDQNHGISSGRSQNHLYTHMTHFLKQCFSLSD

B1: Ab14 (antibody, human IgG1, kappa, L234A L235A, V domains shown)
VH: QVQLQQSGVEVKKPGASVTVSCRASGYSFADHFIHWVRQAPGQGFQWMGWINPNRGVTHHAQDFQGRVAMTRDMSTDTVYMELTSLRSDDTAVYYCARDASLTARPYYFYGFDVWGQGTLVTVSS
VL: EIVLTQSPSSVSASVGDRVTITCRASQGISSWLAWYQQKPGKAPKLLIYAASSLQSGVPSRFSGSGSGTDFTLTISSLQPEDFATYYCQQANSFPLTFGGGTKVEIKR
notes: Fully human, IgG1 / kappa; also called anti-FAP antibody Ab14; Ab114
As to B1, the EC50 in the assay with h-FAP-His [1] turned out to be 417000 ng/mL. The same molecule showed an EC50 in the assay with human FAP on CHO cells of 0.474 ng/mL. The “fold affinity over 28H1” value with h-FAP-His [2] lay in the range of 3 to 6 times. Further, in the assay with h-FAP-His [3], binding was put at a Kd of 0.365 nM, the “Ratio of KD of 28H1 to KD of test antibody” value was 3.6, the “Ratio of Kd of 28H1 to Kd of test antibody” value was found to be 2.1 and the koff stood at 0.000121 s⁻¹. In the assay with h-FAP-His [3], this molecule yielded a kon of 332000 M⁻¹ s⁻¹. Moreover, the “EC50 (read off the curve)” value with mouse FAP on CHOK1 cells is around 8 ng/mL.

B2: Ab15 (antibody, human IgG1, kappa, L234A L235A, V domains shown)
VH: QMQLVQSGAEVKKPGASVTVSCRASGYSFADHFIHWVRQAPGQGFQWMGWINPNRGVTHHAQDFQGRVAMTRDMSTDTVYMELTSLRSDDTAVYYCARDESLTARPYYFYGFDVWGQGTLVTVSS
VL: EIVLTQSPSSVSASVGDRVTITCRASQGISSWLAWYQQKPGKAPKSLIYAASSLQSGVPSRFSGSGSGTDFTLTISSLQPEDFATYYCQQANSFPPTFGGGTKVEIKR
notes: Fully human, IgG1 / kappa; also called anti-FAP antibody Ab15
B2 displayed an EC50 in the assay with h-FAP-His [1] of 321000 ng/mL. Also, the EC50 with human FAP on CHO cells stood at 0.486 ng/mL. Further, the “fold affinity over 28H1” value with h-FAP-His [4] was in the range of 3 to 6 times. In the assay with h-FAP-His [3], the Kd stood at 0.215 nM, the “Ratio of KD of 28H1 to KD of test antibody” value came out at 6.1, the “Ratio of Kd of 28H1 to Kd of test antibody” value worked out at 2.43 and the koff was 0.000105 s⁻¹. This molecule registered a kon with h-FAP-His [3] of 488000 M⁻¹ s⁻¹. Moreover, in the assay with mouse FAP on CHOK1 cells, the “EC50 (read off the curve)” value is around 8 ng/mL.
